Target: T1, human Anti-Mullerian Hormone type II receptor (AMHR-II) (human, UniProt Q16671 18-573)
T1 construct: whole, on cells; In the western blot it was the same protein in reduced SDS-PAGE lysates of xenografts of these cells; also called hAMHR-II
T1 sequence (looked up): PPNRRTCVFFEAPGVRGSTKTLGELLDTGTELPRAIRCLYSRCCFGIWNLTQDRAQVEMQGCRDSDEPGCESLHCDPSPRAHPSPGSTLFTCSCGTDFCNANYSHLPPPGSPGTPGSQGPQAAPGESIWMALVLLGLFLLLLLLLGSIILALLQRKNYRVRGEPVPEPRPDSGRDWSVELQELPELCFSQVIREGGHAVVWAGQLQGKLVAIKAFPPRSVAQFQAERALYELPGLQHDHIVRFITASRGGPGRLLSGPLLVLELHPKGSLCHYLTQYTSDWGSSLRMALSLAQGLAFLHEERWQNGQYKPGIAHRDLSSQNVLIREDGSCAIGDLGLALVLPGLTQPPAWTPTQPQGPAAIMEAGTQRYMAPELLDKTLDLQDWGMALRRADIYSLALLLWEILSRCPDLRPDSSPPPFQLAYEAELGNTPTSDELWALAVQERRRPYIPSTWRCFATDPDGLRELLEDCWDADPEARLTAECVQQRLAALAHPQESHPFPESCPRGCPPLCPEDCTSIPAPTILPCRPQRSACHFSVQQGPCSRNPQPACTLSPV
Experiment: flow cytometry of hybridoma supernatants on AMHR-II positive cells

B1: anti-AMHR-II mAb 12G4 (antibody, mouse IgG1, V domains shown)
VH: QVQLQQSGPELVKPGASVRMSCKASGYTFTSYHIHWVKQRPGQGLEWIGWIYPGDDSTKYNEKFKGKTTLTADKSSSTAYMLLSSLTSEDSAIYFCTRGDRFAYWGQGTLVTVSA
VL: QIVLTQSPAIMSASLGEGITLTCSASSSVRYIHWYQQKSGTSPKLLIYSTSNLASGVPSRFSGSGSGTFHSLTISSVEAEDAADYYCLQWSSYPWTFGGGTKLEIK
notes: also called antibody of hybridoma CNCM I-3673
  binding result: binds

Reference: US20100135996A1 (INSTITUT NATIONAL DE LA SANTE ET DE LA RECHERCHE MEDICALE …, published 2010)
